Data on 1 molecule can be found in patent US20100086958A1, “NOVEL ENZYME” (priority 2008, published 2010).

Data set [1] can be described thus: Thermal stability study (remaining activity after incubation). In kind it is physicochemical. On the procedure:
FIGS. 19 and 20—show the effect of temperature on the stability of the Bsp184FDH and Bsp383FDH enzymes. In FIG. […] In FIG. 20 (1) Bsp184FDH (2.1 mg/mL) and (2) Bsp383FDH (1.5 mg/mL) were incubated at 60° C. and 70° C. for 48 hours period in a similar way. Remaining activities were assayed under standard assay conditions and were expressed as the percentage of activities.
Thermal stability for purified wild-type BcenFDH1 (Bsp184FDH) and BspFDH2 (Bsp383FDH) catalyzed formate oxidation were investigated by Uv/V is spectrophotometry in a 96-well plate format. The results are illustrated in FIGS. 19 and 20. […] In addition, time based-thermal stability for purified wild-type BcenFDH1 (Bsp184FDH) and BspFDH2 (Bsp383FDH) catalyzed formate oxidation were also investigated at 60° C. and 70° C. over 48 hours in a similar way. The samples were spun down briefly to remove any precipitations before use. 10 μL of heat-treated BcenFDH1 and BspFDH2 were added into each well and equilibrated for 3 min at 30° C. after adding 170 μL of 200 mM sodium formate (dissolving in 50 mM sodium phosphate buffer, pH 7.0.) The reaction was initiated by addition of 20 μL of NADP^+ solution from a freshly prepared stock of 20 mM using an 8-channel pipette. The plate was then immediately placed into the plate reader. The plate was shaken for 5 seconds to ensure thorough mixing. Time-based measurements were recorded every 10 s for 10 min. The rate of formate oxidation was calculated using the absorption coefficient of 3.38 mM^−1 (for 200 μL).

Data set [2] is described as follows: Steady state kinetics for NAD^+ (FDH-catalysed formate oxidation). The settings on record: cofactor NAD^+, 0.18M formate. Format: biochemical. How it is done:
BcenFDH1 (Bsp184FDH) and BspFDH2 (Bsp383FDH) catalyzed oxidation of formate to CO2 was monitored by UV/Vis spectrophotometry in a 96-well plate format. A series of eight solutions of formate (0-200 mM) were prepared by successive dilutions of a stock solution of 0.5 M sodium formate in 0.1 M sodium phosphate buffer, pH 7.0. From this series, 170 μL was transferred into wells of the 96-well plate. 10 μL of the FDHs from a stock solution (64.1 μM for BcenFDH1 (Bsp184FDH) and 78.0 μM for BspFDH2 (Bsp383FDH)) were added into each well and equilibrated for 3 min at 30° C. The reaction was initiated by addition of 20 μL of NAD^+ or NADP^+ solution from a freshly prepared stock (10 mM) using an 8-channel pipette. The plate was then immediately placed into the plate reader. The plate was shaken for 5 s to ensure thorough mixing, and then time-based measurements were recorded every 15 s for 10 min. The rate of formate oxidation was calculated using an extinction coefficient of 3.38 mM^−1 (for 200 μL), which was determined using NADH standards. Km and Vmax values were obtained by non-linear regression to the Michaelis-Menten equation (Eq.1 below) using Origin v7 (Microcal Software Inc.).
Similar procedure were used for determination of Michaelis-Menten parameters for NAD^+ and NADP^+. A series of eight solutions of cofactor (0-75 mM) were prepared by successive dilutions of stock solutions. […] of sodium formate solutions (180 mM in well) were transferred into wells of the 96-well plate. 10 μL of the FDHs from a stock solution (64.1 μM for BcenFDH1 (Bsp184FDH) and 78.0 μM for BspFDH2 (Bsp383FDH)) were added into each well and equilibrated for 3 min at 30° C. The reaction was initiated by addition of 20 μL of NAD^+ or NADP^+ solutions using an 8-channel pipette. The plate was then immediately placed into the plate reader. The plate was shaken for 5 s to ensure thorough mixing, and then time-based measurements were recorded every 15 s for 10 min. The rate of formate oxidation was calculated using an extinction coefficient of 3.38 mM^−1 (for 200 μL), which was determined using NADH standards. Km and Vmax values were obtained by non-linear regression to the Michaelis-Menten equation as before.

Data set [3] can be described thus: Ketoreductase (KRED101)/BspFDH2 coupled reduction of ethyl 4-chloro-3-oxobutanoate. In kind it is biochemical. On the procedure: NADP^+ (10 mM, 1 mL) and BspFDH2 (17 mg/mL, 500 μL) were then added and the reaction shaken for 30 minutes at room temperature. After 30 minutes, KRED101 (40 mg/mL, 300 μL) was added. The reaction was monitored by GC-MS (Rt˜3.1 minutes). After 15 hr, the reaction mixture was extracted by DCM (3×1 mL) and combined organic phases were dried and the solvent removed to afford ethyl 4-chloro-3-hydroxybutanoate (6 above, >99% conversion based on GC chromatogram and HPLC). The GC-MS data were collected as example 1a. Chiral HPLC was performed on a Chiralcel OB packed column (0.46 cm I.D.×25 cm L; Daicel Chemical Industries, Japan) at 217 nm, with an eluent of n-hexane/2-propanol (9.3:0.7, v/v) at a flow rate of 1 mL/min. IR, vmax (thin film), 3600-3100 (br, O—H), 1731 (s, C═O) cm^−1. ^1H-NMR (400 MHz, Chloroform-d): δ ppm 1.29 (t, J=7.07 Hz, 3H), 2.55-2.70 (m, 2H), 3.62 (dd, J=5.31, 2.78 Hz, 2H) 4.19 (q, J=7.07 Hz, 2H), 4.23-4.30 (m, 1H). ^13C-NMR (400 MHz, Chloroform-d): δ ppm 14.11, 38.41, 48.11, 61.01, 67.92, 171.78. GC-MS (CI^+): m/z Calcd for C6H12O3Cl [M+H]+=167, C6H15O3Cl [M+NH4]^+=184; Found: 167 (M+H)^+, 184 (M+NH4)^+. HPLC-UV/Vis: (tR=7.9 minutes, tS=9.4 minutes), >99% e.e. of S.
D-(S)-4-chloro-3-hydroxybutanoate ethyl ester is a key chiral pharmaceutical intermediate used in the enantioselective synthesis of, for example, slagenin B and C and HMG-CoA reductase inhibitors. […]

B1: Bsp383FDH: wild type FDH from Burkholderia sp 383, Seq ID No: 1, C-terminal His-tagged (protein, listed as Burkholderia sp.)
chain: MATVLCVLYPDPVDGYPPRYVRDAIPVITHYADGQTAPTPAGPPGFQPGELVGCVSGALGLRGYMEAHGHTLIVTSDKDSPDSEFERRLPEADVVISQPFWPAYLTAERIARAPKLKLALTAGIGSDHVDLDAAARARITVAEVTGSNSISVAEHVVMTTLALVRNYLPSHAIAQQGGWNIADCVSRSYDVEGMHFGTVGAGRIGLAVLRRLKPFGLQLHYTQRHRLDASIEQELGLTYHADAASLASAVDIVNLQIPLYPSTEHLFDAAMIARMKRGAYLINTARAKLVDRDAVVNALTSGHLAGYGGDVWFPQPAPADHPWRTMPFNGMTPHISGTSLSAQARYAAGTLEILQCWFDGKPIRNEYLIVDGGTLAGTGAQSYRLT
modifications: C-terminal His tag
As to B1, the “temperature at which the enzymes denature” value in data set [1] was found to be 80 °C. The “activity lost upon incubation” value in data set [1] (55° C. for 2 hours) is “no activity was lost”. Besides, the “stability at room temperature” value in data set [1] (room temperature for weeks) was “stable”. In addition, in data set [2], the Km came to 7.6 ± 2.1 mM and the “kcat NAD^+” value came to 0.817 ± 0.13 s⁻¹. Moreover, in data set [3] (coupled with KRED101), the reaction complete within was at most 30 min. In addition, in data set [3] (coupled with KRED101, NADPH regeneration, GC and HPLC), the “conversion of ethyl 4-chloro-3-oxobutanoate to ethyl 4-chloro-3-hydroxybutanoate” value is reported as above 99%.
